Usually Kd stands for the free concentration of one partner at which half of the binding sites on the other are occupied at equilibrium, for simple one-to-one binding. A higher Kd goes with weaker binding.

In test [1] the target is T1, biotinylated TNF alpha (human (definition in paragraph 32)); the …, UniProt P01375 77-233, biotinylated (site not stated)).
T1 construct: Used for FACS sorting of yeast libraries and immobilised on streptavidin sensors for BLI; also called TNFα; Tumor Necrosis Factor Alpha
Put plainly: yeast display FACS sorting on biotinylated TNF alpha, NGS enrichment, CDRH2 library.

Test [2] deals with T1, biotinylated TNF alpha. Put plainly: yeast display FACS sorting on biotinylated TNF alpha, NGS enrichment, CDRH2-CDRH3 library.
Test [3] addresses T1, biotinylated TNF alpha. In words: BLI (Octet Red96), Fab in solution, biotinylated TNF alpha on streptavidin sensors, 1:1 global fit. The protocol: After saturation the sensors in a blocking solution containing 10 μg/mL biotin (Sigma-Aldrich, Saint-Louis, United States), the association and dissociation are measured over 20 and 40 minutes respectively. […] During the analysis, the reference is subtracted from each curve and a 1:1 global Langmuir model is applied in order to get the affinity parameters.
(In general: BLI is a label-free optical method that tracks binding on a fibre tip over time.)

Residue numbers refer to the chain shown, from its start.

T1 sequence (P01375 77-233 limits assumed): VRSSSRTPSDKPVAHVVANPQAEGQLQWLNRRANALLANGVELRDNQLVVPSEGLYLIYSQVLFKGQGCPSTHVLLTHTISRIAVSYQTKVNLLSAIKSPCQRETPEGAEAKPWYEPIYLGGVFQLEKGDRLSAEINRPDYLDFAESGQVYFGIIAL

B1: CDRH2 library mutant SAINWNGGHR (Fab, V domains shown)
VH: EVQLVESGGGLVQPGRSLRLSCAASGFTFDDYAMHWVRQAPGKGLEWVSAINWNGGHRDYADSVEGRFTISRDNAKNSLYLQMNSLRAEDTAVYYCAKVSYLSTASSLDYWGQGTLVTVSS
VL: not shown
Consider B1, for which the Enrichment in test [1] was found to be 79.

B2: CDRH2 library mutant SAISWNGGHH (Fab, V domains shown)
VH: B1 VH with N52S, R58H
VL: not shown
On to B2, for which, in test [1], the Enrichment is 87.

B3: Mutant 2, Fab displayed on yeast (CDRH2-CDRH3 combinatorial library) (Fab, V domains shown)
VH: B1 VH with S49G, A50T, R58S, V99T, S100T, S103P
VL: not shown
notes: same variable domains as the soluble Mutant 2 Fab; see its note
B3 returned an Enrichment in test [2] of 1.47e+06.

B4: CDRH2 library mutant SAISWNGGHQ (Fab, V domains shown)
VH: B1 VH with N52S, R58Q
VL: not shown
With B4, the Enrichment in test [1] is 104.

B5: Mutant 5, Fab format (Fab, V domains shown)
VH: B1 VH with S49G, A50D, N52S, R58T, V99T, S100T, S103P
VL: not shown
notes: Soluble Fab as for Mutant 1; also called mutation 5
Turning to B5, binding in test [3] was characterised by a dissociation constant (Kd) of 9 pM.

B6: CDRH2 library mutant SAISWNGGHT (Fab, V domains shown)
VH: B1 VH with N52S, R58T
VL: not shown
Take B6: the Enrichment in test [1] stood at 100.

B7: Mutant 5, Fab displayed on yeast (CDRH2-CDRH3 combinatorial library) (Fab, V domains shown)
VH: B1 VH with S49G, A50D, N52S, R58T, V99T, S100T, S103P
VL: not shown
notes: same variable domains as the soluble Mutant 5 Fab; see its note
Consider B7, for which the Enrichment in test [2] was 512000.

B8: Mutant 8, Fab displayed on yeast (CDRH2-CDRH3 combinatorial library) (Fab, V domains shown)
VH: B1 VH with S49G, V93L, V99T, S100T, S103P
VL: not shown
notes: same variable domains as the soluble Mutant 8 Fab; see its note
In turn, B8 gave an Enrichment in test [2] of 238000.

B9: Mutant 7, Fab displayed on yeast (CDRH2-CDRH3 combinatorial library) (Fab, V domains shown)
VH: B1 VH with S49G, V99A, S100H, S103P
VL: not shown
notes: same variable domains as the soluble Mutant 7 Fab; see its note
Regarding B9, the Enrichment in test [2] came out at 59400.

B10: CDRH2 library mutant SAISWNGGHR (Fab, V domains shown)
VH: B1 VH with N52S
VL: not shown
Take B10: the Enrichment in test [1] was 207.

B11: Mutant 6, Fab displayed on yeast (CDRH2-CDRH3 combinatorial library) (Fab, V domains shown)
VH: B1 VH with S49G, V99T, S100N, S103P
VL: not shown
notes: same variable domains as the soluble Mutant 6 Fab; see its note
In test [2], B11 yielded an Enrichment of 238000.

B12: CDRH2 library mutant SSIAWNGGHW (Fab, V domains shown)
VH: B1 VH with A50S, N52A, R58W
VL: not shown
The molecule B12 had an Enrichment in test [1] of 128.

B13: Mutant 1, Fab displayed on yeast (CDRH2-CDRH3 combinatorial library) (Fab, V domains shown)
VH: B1 VH with S49G, V99S, S100Q, S103P
VL: not shown
notes: same variable domains as the soluble Mutant 1 Fab; see its note
In turn, B13 gave an Enrichment in test [2] of 217000.

B14: Mutant 4, Fab displayed on yeast (CDRH2-CDRH3 combinatorial library) (Fab, V domains shown)
VH: B1 VH with S49G, G55S, R58H, V99T, S100T, S103P
VL: not shown
notes: same variable domains as the soluble Mutant 4 Fab; see its note
Regarding B14, the Enrichment in test [2] came to 186000.

B15: Mutant 3, Fab displayed on yeast (CDRH2-CDRH3 combinatorial library) (Fab, V domains shown)
VH: B1 VH with S49G, R58H, V99T, S100T, S103P
VL: not shown
notes: same variable domains as the soluble Mutant 3 Fab; see its note
Turning to B15, in test [2], the Enrichment was determined as 111000.

These data come from patent US20230142800A1 (COMMISSARIAT A L ENERGIE ATOMIQUE ET AUX ENERGIES …, published 2023).
